Where no end group is shown, it is not given here.
B1: Phage-2196 (peptide)
peptide: LADWCRPVWMCEGF
notes: Clonal phage of the peptide-180 library, tested as crude phage supernatant; not shown: fused to pIII of the bacteriophage
B2: Phage-2195 (peptide)
peptide: LYKWCMPAWMCEQK
notes: as for B1
B3: Phage-2200 (peptide)
peptide: GEIWCIPAWMCNTG
notes: as for B1
B4: Phage-2201 (peptide)
peptide: EYNWCTPRWMCKGF
notes: as for B1
B5: Phage-1818 (peptide)
peptide: MERWCVPDWMCATF
modifications: cysteine pairing not given here; also: displayed on phage as pIII fusion, pIII sequence and linker not given here
B6: Phage-2197 (peptide)
peptide: LEKWCIPSWMCDGM
notes: as for B1
B7: Phage-1821 (peptide)
peptide: IVKRCEPMWMCAGF
modifications: cysteine pairing not given here; also: displayed on phage as pIII fusion, pIII sequence and linker not given here
B8: Phage-2202 (peptide)
peptide: HDKWCIPEWMCISL
notes: as for B1
B9: Phage-2194 (peptide)
peptide: HAMWCIPAWMCENL
notes: as for B1
B10: Phage-2199 (peptide)
peptide: VEKWCIPSWMCQEL
notes: as for B1
B11: Phage-2203 (peptide)
peptide: MERWCIPEWMCERT
notes: as for B1
B12: Phage-2198 (peptide)
peptide: DVNWCTPPWMCWGF
notes: as for B1
B13: Phage-2192 (peptide)
peptide: MTPWCKPAWMCQGI
notes: as for B1
B14: Phage-2205 (peptide)
peptide: VDRLCTPEWMCSGF
notes: as for B1
B15: Phage-2204 (peptide)
peptide: DLKLCKPEWMCNGM
notes: as for B1
B16: Phage-2193 (peptide)
peptide: ESHLCIPAWMCDVQ
notes: as for B1

Assays:
[1] = target: T1, Anti-PSMA Fab (SEQ ID NOs: 19, 20); assay: phage binding ELISA; biotinylated Fab on neutravidin plate, anti-M13 HRP detection
T1 construct: Biotinylated and captured on neutravidin coated plates in the phage ELISA; also called 006 PSMA Fab
Experimental: (§1) Clonal phage were harvested as crude supernatants and screened via standard ELISAs. […] Prior to the addition of clonal phage. wells were incubated with blocking buffer and PSMA antigen or blocking buffer alone. Without washing or aspirating, clonal phage supernatants were then added to the wells and incubated for a short time. Wells were then washed followed by detection of bound phage using a horse radish conjugated anti-M13 antibody.

[2] = target: T1, Anti-PSMA Fab (SEQ ID NOs: 19, 20); assay: phage binding ELISA on captured Fab; competitor PSMA antigen pre-incubated in the wells
Experimental: as §1

[3] = target: T2, Anti-PSMA Fab (SEQ ID NOs: 19, 20); assay: phage binding ELISA; clonal phage on biotinylated anti-PSMA Fab captured on neutravidin, anti-M13 HRP detection
T2 construct: In the phage ELISA the Fab was biotinylated and captured on neutravidin coated plates; also called 006 PSMA Fab
Experimental: as §1

[4] = target: T2, Anti-PSMA Fab (SEQ ID NOs: 19, 20); assay: phage binding ELISA on captured anti-PSMA Fab; competitor: PSMA antigen
Experimental: as §1

[5] = target: T3, Anti-PSMA Fab (SEQ ID NOs: 19, 20); assay: phage binding ELISA; PSMA Fab on plate pre-incubated with PSMA antigen as competitor, anti-M13 HRP detection;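 further: crude clonal phage supernatants added without washing to wells preincubated with PSMA in blocking buffer, compared with wells receiving blocking buffer only, then bound phage detected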
T3 construct: Biotinylated and captured on neutravidin-coated plates in the phage ELISA; also called 006 PSMA Fab
Experimental: as §1

[6] = target: T3, Anti-PSMA Fab (SEQ ID NOs: 19, 20); assay: phage binding ELISA; biotinylated PSMA Fab on neutravidin plate, clonal phage supernatant, anti-M13 HRP detection;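 further: wells were preincubated with blocking buffer either containing PSMA antigen or without it before crude phage supernatant was added, briefly incubated, then washed prior to detection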
Experimental: as §1

[7] = target: T4, Anti-PSMA Fab (SEQ ID NOs: 19, 20); assay: phage binding ELISA; PSMA Fab coated wells pre-incubated with PSMA antigen as competitor, anti-M13 HRP detection
T4 construct: also called 006 PSMA Fab
Experimental: as §1

[8] = target: T4, Anti-PSMA Fab (SEQ ID NOs: 19, 20); assay: phage binding ELISA; biotinylated PSMA Fab on neutravidin plate, clonal phage supernatant, anti-M13 HRP detection;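 further: wells were preincubated with blocking buffer either containing PSMA antigen or without it before crude phage supernatant was added, briefly incubated, then washed prior to detection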
Experimental: as §1

| Binder | Anti-PSMA Fab (SEQ ID NOs: 19, 20) signal [1] | Anti-PSMA Fab signal in the presence of PSMA [2] | Anti-PSMA Fab (SEQ ID NOs: 19, 20) signal [3] | Anti-PSMA Fab signal in the presence of PSMA [4] | Anti-PSMA Fab signal in the presence of PSMA [7] | Anti-PSMA Fab (SEQ ID NOs: 19, 20) signal [8] | other results |
| --- | --- | --- | --- | --- | --- | --- | --- |
| B1 | 1.62 | 0.287 | – | – | – | – | – |
| WENWCQPAWMCTGL [Phage-1826] | – | – | 2.33 | 0.0691 | – | – | – |
| VVKWCIPTWMCENS [Phage-2241 peptide (SEQ ID NO: 2557)] | – | – | – | – | – | – | Anti-PSMA Fab signal in the presence of PSMA [5]: 0.0889; Anti-PSMA Fab (SEQ ID NOs: 19, 20) signal [6]: 1.56 |
| VEKMCRPAWMCWVM [Phage-1824] | – | – | 2.37 | 0.214 | – | – | – |
| VLKLCVPPWMCMAQ [Phage-1827] | – | – | 2.32 | 0.0968 | – | – | – |
| B2 | 1.62 | 0.0702 | – | – | – | – | – |
| B3 | 1.62 | 0.0549 | – | – | – | – | – |
| TEVRCTPPWMCLGF (tested as clonal phage supernatant) [Phage-1814] | – | – | – | – | 0.0981 | 2.36 | – |
| VNHWCVPTWMCAGF (tested as clonal phage supernatant) [Phage-1811] | – | – | – | – | 0.186 | 2.41 | – |
| TEIRCTPQWMCLGF [Phage-1823] | – | – | 2.37 | 0.0871 | – | – | – |
| VEVKCFPLWFCVGL (tested as clonal phage supernatant) [Phage-1805] | – | – | – | – | 0.0923 | 2.23 | – |
| B4 | 1.62 | 0.0617 | – | – | – | – | – |
| B5 | – | – | 2.47 | 0.0578 | – | – | – |
| IVVKCVPSWMCEGF (tested as clonal phage supernatant) [Phage-1812] | – | – | – | – | 0.102 | 2.4 | – |
| TVAYCKPAWMCQGF (tested as clonal phage supernatant) [Phage-1813] | – | – | – | – | 0.108 | 2.37 | – |
| B6 | 1.62 | 0.0637 | – | – | – | – | – |
| B7 | – | – | 2.38 | 0.264 | – | – | – |
| MVKWCTPAWMCEML [Phage-1820] | – | – | 2.41 | 0.113 | – | – | – |
| VVIKCKPEWMCSGF (tested as clonal phage supernatant) [Phage-1807] | – | – | – | – | 0.0946 | 2.18 | – |
| B8 | 1.62 | 0.075 | – | – | – | – | – |
| ITPVCKPLWMCSGL (tested as clonal phage supernatant) [Phage-1804] | – | – | – | – | 0.0764 | 2.35 | – |
| TTHVCIPSWMCSGF (tested as clonal phage supernatant) [Phage-1810] | – | – | – | – | 0.0668 | 2.15 | – |
| YERACIPNWICEGF (tested as clonal phage supernatant) [Phage-1809] | – | – | – | – | 0.0842 | 1.03 | – |

| Binder | Anti-PSMA Fab (SEQ ID NOs: 19, 20) signal [1] | Anti-PSMA Fab signal in the presence of PSMA [2] | Anti-PSMA Fab (SEQ ID NOs: 19, 20) signal [3] | Anti-PSMA Fab signal in the presence of PSMA [4] | Anti-PSMA Fab signal in the presence of PSMA [7] | Anti-PSMA Fab (SEQ ID NOs: 19, 20) signal [8] | other results |
| --- | --- | --- | --- | --- | --- | --- | --- |
| ITPICKPAWICSGF (tested as clonal phage supernatant) [Phage-1806] | – | – | – | – | 0.0631 | 2.2 | – |
| MDKWCTPPWMCDWL [Phage-1829] | – | – | 2.3 | 0.136 | – | – | – |
| DFKWCIPTWMCEVY [Phage-2238 peptide (SEQ ID NO: 2554)] | – | – | – | – | – | – | Anti-PSMA Fab signal in the presence of PSMA [5]: 0.0768; Anti-PSMA Fab (SEQ ID NOs: 19, 20) signal [6]: 1.56 |
| PEHLCLPRWMCEGF (tested as clonal phage supernatant) [Phage-1808] | – | – | – | – | 0.135 | 1.78 | – |
| B9 | 1.63 | 0.0809 | – | – | – | – | – |
| VLKYCIPDWMCAGI (tested as clonal phage supernatant) [Phage-1816] | – | – | – | – | 0.0978 | 2.24 | – |
| ISKLCTPPWMCEML [Phage-1825] | – | – | 2.33 | 0.0582 | – | – | – |
| B10 | 1.62 | 0.0642 | – | – | – | – | – |
| B11 | 1.61 | 0.072 | – | – | – | – | – |
| VERLCTPAWMCHGF (tested as clonal phage supernatant) [Phage-1815] | – | – | – | – | 0.214 | 2.36 | – |
| HPNWCTPPWMCLGL [Phage-2239 peptide (SEQ ID NO: 2555)] | – | – | – | – | – | – | Anti-PSMA Fab signal in the presence of PSMA [5]: 0.0699; Anti-PSMA Fab (SEQ ID NOs: 19, 20) signal [6]: 1.56 |
| B12 | 1.62 | 0.0743 | – | – | – | – | – |
| B13 | 1.63 | 0.0994 | – | – | – | – | – |
| B14 | 1.61 | 0.0763 | – | – | – | – | – |
| B15 | 1.61 | 0.0815 | – | – | – | – | – |
| WENWCTPAWMCVGF [Phage-1822] | – | – | 2.37 | 0.0932 | – | – | – |
| PERLCTPPWMCLGF [Phage-1817] | – | – | 2.24 | 0.0917 | – | – | – |
| EPKWCTPAWMCEWM [Phage-1830] | – | – | 2.29 | 0.0904 | – | – | – |
| MDNWCTPEWMCLGF [Phage-1828] | – | – | 2.3 | 0.065 | – | – | – |
| ALKLCIPFWMCEGL [Phage-1819] | – | – | 2.44 | 0.129 | – | – | – |
| B16 | 1.63 | 0.0973 | – | – | – | – | – |
| LEPLCVPRWMCVGF (tested as clonal phage supernatant) [Phage-1803] | – | – | – | – | 0.112 | 2.36 | – |

Reference: patent US20260242478A1 (published 2026)
